PMC1807977 (Nucleic Acids Research, 2007)
Values belong to the binder of their own block, whether it stands above or below them.

How the values were obtained:
Tfb5 = biological target: T1, Tfb5 (Saccharomyces cerevisiae, UniProt Q3E7C1 1-72); assay: EMSA
T1 sequence: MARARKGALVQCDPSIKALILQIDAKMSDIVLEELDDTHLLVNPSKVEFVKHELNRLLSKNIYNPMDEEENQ

[1] = biological target: T2, CBP-tagged Tfb2 (purified yeast Tfb2 protein) (S. cerevisiae, UniProt Q02939 1-513); assay: pull-down
T2 sequence (looked up): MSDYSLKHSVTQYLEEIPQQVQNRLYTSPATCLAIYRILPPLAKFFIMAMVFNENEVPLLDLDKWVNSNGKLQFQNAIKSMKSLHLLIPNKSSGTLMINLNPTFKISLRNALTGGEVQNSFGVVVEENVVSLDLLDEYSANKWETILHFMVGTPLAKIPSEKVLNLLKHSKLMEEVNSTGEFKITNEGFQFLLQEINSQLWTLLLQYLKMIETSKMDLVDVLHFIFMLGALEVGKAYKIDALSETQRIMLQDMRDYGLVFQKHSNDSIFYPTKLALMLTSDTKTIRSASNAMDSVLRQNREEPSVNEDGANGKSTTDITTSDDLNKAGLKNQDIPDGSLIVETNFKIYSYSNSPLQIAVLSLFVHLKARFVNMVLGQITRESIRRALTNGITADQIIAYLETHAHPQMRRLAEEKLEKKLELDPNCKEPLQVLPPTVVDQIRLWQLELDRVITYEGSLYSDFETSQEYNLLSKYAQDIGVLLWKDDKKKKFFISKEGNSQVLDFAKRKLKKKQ

[2] = biological target: T2, CBP-tagged Tfb2 (purified yeast Tfb2 …); assay: co-IP

B1: 79mer ss (ssDNA)
DNA: GGAATTCCGGAATTACAGGCTCTAACACCGAATTACAGGCTCTAACACCGTCTCATCTTCGCTCGTCCACTTTTTTTCG
binding result (Tfb5): no binding

B2: His6-Tfb5ΔC14 (domain or fragment, S. cerevisiae, UniProt Q3E7C1 1-58, looked up)
chain: MARARKGALVQCDPSIKALILQIDAKMSDIVLEELDDTHLLVNPSKVEFVKHELNRLL
binding result [1]: binds

More lines, now with the values ahead:

binding result [2]: binds
B3: His6-Tfb5 (purified yeast Tfb5 protein) (natural protein, S. cerevisiae, UniProt Q3E7C1 1-72, looked up)
chain: T1 sequence

binding result [1]: binds
B4: His6-Tfb5ΔN7 (domain or fragment, S. cerevisiae, UniProt Q3E7C1 8-72, looked up)
chain: ALVQCDPSIKALILQIDAKMSDIVLEELDDTHLLVNPSKVEFVKHELNRLLSKNIYNPMDEEENQ
